Reference: ChEMBL document CHEMBL1671804, “Normal and abnormal heme biosynthesis. Part 7. Synthesis and metabolism of coproporphyrinogen-III analogues with acetate or butyrate side chains on rings C and D. Development of a modified model for the active site of coproporphyrinogen oxidase” (Bioorg Med Chem, 2011)

Tests used:
[1] = tested on: Uroporphyrinogen decarboxylase (Gallus gallus); assay: Activity at chicken red cell hemolysate URO-D assessed as product formation after 150 mins
[2] = molecular target: T1, Oxygen-dependent coproporphyrinogen-III oxidase, mitochondrial (Homo sapiens) (UniProt P36551); assay: Activity at recombinant human CPO assessed as product formation after 30 mins
T1 sequence (whole entry): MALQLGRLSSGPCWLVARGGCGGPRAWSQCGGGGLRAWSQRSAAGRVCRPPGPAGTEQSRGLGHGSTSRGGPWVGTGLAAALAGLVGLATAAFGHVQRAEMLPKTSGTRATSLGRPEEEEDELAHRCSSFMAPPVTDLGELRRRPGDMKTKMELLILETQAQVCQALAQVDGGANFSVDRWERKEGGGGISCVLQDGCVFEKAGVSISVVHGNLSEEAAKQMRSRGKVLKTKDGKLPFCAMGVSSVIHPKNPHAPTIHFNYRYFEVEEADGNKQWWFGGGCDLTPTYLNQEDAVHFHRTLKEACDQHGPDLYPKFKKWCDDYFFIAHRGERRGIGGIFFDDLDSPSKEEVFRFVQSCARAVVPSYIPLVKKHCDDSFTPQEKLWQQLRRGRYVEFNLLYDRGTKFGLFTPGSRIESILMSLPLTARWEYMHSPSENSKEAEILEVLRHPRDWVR

[3] = substrate: Cc1c2[nH]c(c1CCC(=O)O)Cc1[nH]c(c(CCC(=O)O)c1C)Cc1[nH]c(c(CCCC(=O)O)c1C)Cc1[nH]c(c(C)c1CCCC(=O)O)C2; assay: (§1) Activity at recombinant human CPO
[4] = substrate: Cc1c2[nH]c(c1CCC(=O)O)Cc1[nH]c(c(CCC(=O)O)c1C)Cc1[nH]c(c(CC(=O)O)c1C)Cc1[nH]c(c(C)c1CC(=O)O)C2; assay: as §1
[5] = substrate: Cc1c2[nH]c(c1CCC(=O)O)Cc1[nH]c(c(CCC(=O)O)c1C)Cc1[nH]c(c(CCC(=O)O)c1C)Cc1[nH]c(c(C)c1CCC(=O)O)C2; assay: as §1

Activity [2] [%]	Molecule	Activity [1] [%]	Km [3] [µM]	Km [4] [µM]	Km [5] [µM]
35.7	Cc1c2[nH]c(c1CCC(=O)O)Cc1[nH]c(c(CCC(=O)O)c1C)Cc1[nH]c(c(CC(=O)O)c1C)Cc1[nH]c(c(C)c1CC(=O)O)C2	49.5			
	Oxygen-dependent coproporphyrinogen-III oxidase, mitochondrial (Homo sapiens), P36551 (protein) MALQLGRLSSGPCWLVARGGCGGPRAWSQCGGGGLRAWSQRSAAGRVCRPPGPAGTEQSRGLGHGSTSRGGPWVGTGLAAALAGLVGLATAAFGHVQRAEMLPKTSGTRATSLGRPEEEEDELAHRCSSFMAPPVTDLGELRRRPGDMKTKMELLILETQAQVCQALAQVDGGANFSVDRWERKEGGGGISCVLQDGCVFEKAGVSISVVHGNLSEEAAKQMRSRGKVLKTKDGKLPFCAMGVSSVIHPKNPHAPTIHFNYRYFEVEEADGNKQWWFGGGCDLTPTYLNQEDAVHFHRTLKEACDQHGPDLYPKFKKWCDDYFFIAHRGERRGIGGIFFDDLDSPSKEEVFRFVQSCARAVVPSYIPLVKKHCDDSFTPQEKLWQQLRRGRYVEFNLLYDRGTKFGLFTPGSRIESILMSLPLTARWEYMHSPSENSKEAEILEVLRHPRDWVR		0.76	6.8	0.68
